# Ends that are not written are not given here.
# Target: TLR4/MD2 complex on HEK293-hTLR4-MD2-CD14 cells (human) (UniProt O00206)
binder,measurement,value
"GYYYPSDPNTFYAPPYSA (also: HiLyte Fluor 488 label, position not given here) [HiLyte Fluor 488-labeled GK-1]","uptake of GK-1-HF488 (MFI by flow cytometry after trypsin treatment), HEK293-TLR4 cells against HEK293-null cells, 1 h at 4 °C, 5 to 50 uM",5 fold
same,"uptake of GK-1-HF488 (MFI by flow cytometry after trypsin treatment), HEK293-TLR4 cells against HEK293-null cells, 1 h at 37 °C, 5 to 50 uM",< 30 fold
